Read-outs that look alike come from different tables or passages of the source.
Tests used:
hCLEC2D [1] = target: T1, hCLEC2D (human, UniProt Q9UHP7 1-191); experiment: flow cytometry; 100 nM antibody on HEK293 cells expressing CLEC2D; Alexa Fluor 647 anti-human IgG; MFI
T1 construct: Overexpressed on HEK293 or K562 cells; the same id is used for endogenous CLEC2D on NALM6 and Raji cells; also called LLT1
T1 sequence: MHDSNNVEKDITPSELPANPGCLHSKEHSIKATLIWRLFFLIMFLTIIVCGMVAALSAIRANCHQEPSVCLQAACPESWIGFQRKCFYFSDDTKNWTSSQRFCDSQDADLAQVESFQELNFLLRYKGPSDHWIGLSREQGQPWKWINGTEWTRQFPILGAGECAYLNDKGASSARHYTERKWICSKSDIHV
Protocol: (§1) For the antibody binding assay, all cell lines were washed in phosphate-buffered saline with 0.1% bovine serum albumin (PBSA) and seeded in a 96 well plate at a density of 4×10⁴ cells per well. Washed cells were resuspended in 100 nM of antibody (a saturating concentration to measure maximum binding on cells) and incubated at room temperature for 30 minutes. […] Cells were analyzed by flow cytometry with a Thermo Fisher Attune flow cytometer.
(§2) Data were analyzed using FlowJo software. MFI for each sample was calculated and exported into Graphpad Prism.

hCLEC2D [2] = target: T1, hCLEC2D; experiment: flow cytometry, HEK293 transfectants, 100 nM antibody;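 also: antibody applied at a saturating level and incubated with cells for 30 min at room temperature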
Protocol: as §1, §2

hKLRF2 [3] = target: T2, hKLRF2 (human, UniProt D3W0D1 1-207); experiment: as above
T2 construct: Overexpressed on HEK293 cells
T2 sequence: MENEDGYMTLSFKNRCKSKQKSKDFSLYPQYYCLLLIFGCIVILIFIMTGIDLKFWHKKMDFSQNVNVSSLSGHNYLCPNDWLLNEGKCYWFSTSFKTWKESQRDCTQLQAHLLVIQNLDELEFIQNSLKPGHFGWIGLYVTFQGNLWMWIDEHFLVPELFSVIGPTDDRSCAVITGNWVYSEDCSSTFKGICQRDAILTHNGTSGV
Protocol: as §1, §2

hKLRF1 [4] = target: T3, hKLRF1 (human, UniProt Q9NZS2 1-231); experiment: as above
T3 construct: Overexpressed on HEK293 cells
T3 sequence: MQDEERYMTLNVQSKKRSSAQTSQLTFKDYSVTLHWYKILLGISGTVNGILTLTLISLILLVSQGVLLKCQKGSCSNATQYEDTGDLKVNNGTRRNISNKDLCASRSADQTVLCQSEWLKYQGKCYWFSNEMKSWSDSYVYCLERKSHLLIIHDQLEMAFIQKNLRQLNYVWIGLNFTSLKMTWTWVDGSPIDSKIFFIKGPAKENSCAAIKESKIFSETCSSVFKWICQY
Protocol: as §1, §2

hCLEC12B [5] = target: T4, hCLEC12B (human, UniProt Q2HXU8 1-276); experiment: as above
T4 construct: Overexpressed on HEK293 cells
T4 sequence: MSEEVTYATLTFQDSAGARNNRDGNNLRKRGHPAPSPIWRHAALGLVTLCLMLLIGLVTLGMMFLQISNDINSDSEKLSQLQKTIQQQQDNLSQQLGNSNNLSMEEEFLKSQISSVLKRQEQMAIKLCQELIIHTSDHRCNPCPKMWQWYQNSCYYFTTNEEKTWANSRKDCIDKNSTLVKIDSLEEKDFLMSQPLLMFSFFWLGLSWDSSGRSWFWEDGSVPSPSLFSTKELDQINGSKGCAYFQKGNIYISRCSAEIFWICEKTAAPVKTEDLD
Protocol: as §1, §2

hKLRF1 [6] = target: T3, hKLRF1; experiment: flow cytometry; 100 nM antibody on HEK293 cells expressing KLRF1; Alexa Fluor 647 anti-human IgG; MFI
Protocol: as §1, §2

hKLRF2 [7] = target: T2, hKLRF2; experiment: flow cytometry; 100 nM antibody on HEK293 cells expressing KLRF2; Alexa Fluor 647 anti-human IgG; MFI
Protocol: as §1, §2

hKLRF2 [8] = target: T2, hKLRF2; experiment: as above; remark: listed apart in the source
Protocol: as §1, §2

hKLRF1 [9] = target: T3, hKLRF1; experiment: flow cytometry; 100 nM antibody on HEK293 cells expressing KLRF1; Alexa Fluor 647 anti-human IgG; MFI; remark: listed apart in the source
Protocol: as §1, §2

hCLEC12B [10] = target: T4, hCLEC12B; experiment: flow cytometry; 100 nM antibody on HEK293 cells expressing CLEC12B; Alexa Fluor 647 anti-human IgG; MFI
Protocol: as §1, §2

hCLEC2D [11] = target: T1, hCLEC2D; experiment: flow cytometry; 100 nM antibody on HEK293 cells expressing CLEC2D; Alexa Fluor 647 anti-human IgG; MFI; remark: listed apart in the source
Protocol: as §1, §2

B1: Ab3 (antibody, human IgG1, V domains shown)
VH: EVQLLESGGGLVQPGGSLRLSCAASGFTFERYAMSWVRQAPGKGLEWVSAISAAGGTTYYADSVKGRFTISRDNSKNTLYLQMNSLRAEDTAVYYCAKPLDSSQWADFDLWGRGTLVTVSS
VL: DIQLTQSPSSVSASVGDRVTITCRASQDISSWLAWYQQKPGKAPKFLIYAASALQSGVPSRFSGSGSGTDFTLTISSLQPEDFATYYCQQALVLPITFGGGTKVEIK
notes: IgG purified from yeast culture
binding result (hCLEC2D [1]): no binding (tested: 100 nM)
% of CD161 binding (hCLEC2D [2]): 0.832%
% of CD161 binding (hKLRF2 [3]): -0.007%
% of CD161 binding (hKLRF1 [4]): 0.011%
% of CD161 binding (hCLEC12B [5]): -0.042%
binding result (hKLRF1 [6]): no binding (tested: 100 nM)

B2: Ab10 (antibody, human IgG1, V domains shown)
VH: EVQLLESGGGLVQPGGSLRLSCAASGFTFSQYAMSWVRQAPGKGLEWVSAISAVGGSTYYADSVKGRFTISRDNSKNTLYLQMNSLRAEDTAVYYCAKPLDSSQWADFDLWGRGTLVTVSS
VL: DIQLTQSPSSVSASVGDRVTITCRASQDISSWLAWYQQKPGKAPKLLIYAASALQSGVPSRFSGSGSGTDFTLTISSLQPEDFATYYCQQADVLPITFGGGTKVEIK
notes: as for B1
binding result (hKLRF2 [7]): no binding (tested: 100 nM)
binding result (hCLEC2D [1]): no binding (tested: 100 nM)
% of CD161 binding (hCLEC2D [2]): 0.935%
% of CD161 binding (hKLRF2 [3]): 0.004%
% of CD161 binding (hKLRF1 [4]): 0.046%
% of CD161 binding (hCLEC12B [5]): -0.004%
binding result (hKLRF1 [6]): no binding (tested: 100 nM)

B3: Ab11 (antibody, human IgG1, V domains shown)
VH: EVQLLESGGGLVQPGGSLRLSCAASGFTFSQYAMSWVRQAPGKGLEWVSAISAAGGTTYYADSVKGRFTISRDNSKNTLYLQMNSLRAEDTAVYYCAKPLDSSQWADFDLWGRGTLVTVSS
VL: DIQLTQSPSSVSASVGDRVTITCRASQGIYSWLAWYQQKPGKAPKLLIYAASSLQSGVPSRFSGSGSGTDFTLTISSLQPEDFATYYCQQASDLPITFGGGTKVEIK
notes: as for B1
binding result (hKLRF2 [7]): no binding (tested: 100 nM)
binding result (hCLEC2D [1]): no binding (tested: 100 nM)
% of CD161 binding (hCLEC2D [2]): 0.785%
% of CD161 binding (hKLRF2 [3]): 0.021%
% of CD161 binding (hKLRF1 [4]): 0.024%
% of CD161 binding (hCLEC12B [5]): -0.003%
binding result (hKLRF1 [6]): no binding (tested: 100 nM)

B4: Ab18 (antibody, human IgG1, V domains shown)
VH: QVQLVESGGGLVKPGGSLRLSCAASGFTFSQYYMSWIRQAPGKGLEWVSYISPSGATIAYADSVKGRFTISRDNAKNSLYLQMNSLRAEDTAVYYCARSLMATGTHLYFDLWGRGTLVTVSS
VL: DIQLTQSPSSVSASVGDRVTITCRASQGISSWLAWYQQKPGKAPKLLIYAAESLQSGVPSRFSGSGSGTDFTLTISSLQPEDFATYYCQQVTSQPPYTFGGGTKVEIK
notes: as for B1
binding result (hKLRF2 [8]): no binding (tested: 100 nM)
binding result (hKLRF1 [9]): no binding (tested: 100 nM)
% of CD161 binding (hCLEC2D [2]): 0.865%
% of CD161 binding (hKLRF2 [3]): 0.101%
% of CD161 binding (hKLRF1 [4]): 0.121%
% of CD161 binding (hCLEC12B [5]): 0.169%
binding result (hCLEC12B [10]): no binding (tested: 100 nM)
binding result (hCLEC2D [11]): no binding (tested: 100 nM)

B5: Ab14 (antibody, human IgG1, V domains shown)
VH: QVQLVESGGGLVKPGGSLRLSCAASGFTFGQYYMSWIRQAPGKGLEWVSYISPSGATIAYADSVKGRFTISRDNAKNSLYLQMNSLRAEDTAVYYCARSLMSTGTHLYFDLWGRGTLVTVSS
VL: DIQLTQSPSSVSASVGDRVTITCRASQGISDWLAWYQQKPGKAPKLLIYAASSLQSGVPSRFSGSGSGTDFTLTISSLQPEDFATYYCQQVTSFPPYTFGGGTKVEIK
notes: as for B1
binding result (hKLRF2 [8]): no binding (tested: 100 nM)
binding result (hKLRF1 [9]): no binding (tested: 100 nM)
% of CD161 binding (hCLEC2D [2]): 1.02%
% of CD161 binding (hKLRF2 [3]): 0.054%
% of CD161 binding (hKLRF1 [4]): 0.09%
% of CD161 binding (hCLEC12B [5]): 0.064%
binding result (hCLEC12B [10]): no binding (tested: 100 nM)
binding result (hCLEC2D [11]): no binding (tested: 100 nM)

B6: Ab12 (antibody, human IgG1, V domains shown)
VH: QVQLVESGGGLVKPGGSLRLSCAASGFTFAQYYMSWIRQAPGKGLEWVSYISPSGSTIAYADSVKGRFTISRDNAKNSLYLQMNSLRAEDTAVYYCARSLMATGTHLYFDLWGRGTLVTVSS
VL: DIQLTQSPSSVSASVGDRVTITCRASQDISSWLAWYQQKPGKAPKLLIYAASSLQSGVPSRFSGSGSGTDFTLTISSLQPEDFATYYCQQVTSFPPYTFGGGTKVEIK
notes: as for B1
binding result (hKLRF2 [8]): no binding (tested: 100 nM)
binding result (hKLRF1 [9]): no binding (tested: 100 nM)
% of CD161 binding (hCLEC2D [2]): 1.16%
% of CD161 binding (hKLRF2 [3]): 0.055%
% of CD161 binding (hKLRF1 [4]): 0.065%
% of CD161 binding (hCLEC12B [5]): 0.061%
binding result (hCLEC12B [10]): no binding (tested: 100 nM)
binding result (hCLEC2D [11]): no binding (tested: 100 nM)

B7: Ab15 (antibody, human IgG1, V domains shown)
VH: QVQLVESGGGLVKPGGSLRLSCAASGFTFPQYYMSWIRQAPGKGLEWVSYISPSGATIYYADSVKGRFTISRDNAKNSLYLQMNSLRAEDTAVYYCARSLMSTGTHLYFDLWGRGTLVTVSS
VL: DIQLTQSPSSVSASVGDRVTITCRASQGISSWLAWYQQKPGKAPKLLIYAASSLQSGVPSRFSGSGSGTDFTLTISSLQPEDFATYYCQQVTSTPPYTFGGGTKVEIK
notes: as for B1
binding result (hKLRF2 [8]): no binding (tested: 100 nM)
binding result (hKLRF1 [9]): no binding (tested: 100 nM)
% of CD161 binding (hCLEC2D [2]): 0.935%
% of CD161 binding (hKLRF2 [3]): 0.067%
% of CD161 binding (hKLRF1 [4]): 0.114%
% of CD161 binding (hCLEC12B [5]): 0.071%
binding result (hCLEC12B [10]): no binding (tested: 100 nM)
binding result (hCLEC2D [11]): no binding (tested: 100 nM)

B8: Ab13 (antibody, human IgG1, V domains shown)
VH: QVQLVESGGGLVKPGGSLRLSCAASGFTFANYYMSWIRQAPGKGLEWVSYISPSGATIAYADSVKGRFTISRDNAKNSLYLQMNSLRAEDTAVYYCARSLMATGTHLYFDLWGRGTLVTVSS
VL: DIQLTQSPSSVSASVGDRVTITCRASSGISSWLAWYQQKPGKAPKLLIYAASELQSGVPSRFSGSGSGTDFTLTISSLQPEDFATYYCQQATSFPPYTFGGGTKVEIK
notes: as for B1
binding result (hKLRF2 [8]): no binding (tested: 100 nM)
binding result (hKLRF1 [9]): no binding (tested: 100 nM)
% of CD161 binding (hCLEC2D [2]): 0.907%
% of CD161 binding (hKLRF2 [3]): 0.089%
% of CD161 binding (hKLRF1 [4]): 0.106%
% of CD161 binding (hCLEC12B [5]): 0.175%
binding result (hCLEC12B [10]): no binding (tested: 100 nM)
binding result (hCLEC2D [11]): no binding (tested: 100 nM)
